How the values were obtained:
[1] = target: recombinant fragment of human VE-cadherin extracellular region, CAD 1-4 fragment (Asp48-Glu478, preceded by Met), SEQ ID NO: 4 (human) (UniProt P33151); test: sandwich ELISA, BV9 capture, rabbit polyclonal detection; CAD1-4 at 1.25 ng/mL; first replicate
[2] = target: recombinant fragment of human VE-cadherin extracellular region, CAD 1-4 fragment (Asp48-Glu478, preceded by Met), SEQ ID NO: 4 (human) (UniProt P33151); test: sandwich ELISA, BV9 capture, rabbit polyclonal detection; CAD1-4 at 0.63 ng/mL; first replicate
[3] = target: recombinant fragment of human VE-cadherin extracellular region, CAD 1-4 fragment (Asp48-Glu478, preceded by Met), SEQ ID NO: 4 (human) (UniProt P33151); test: sandwich ELISA, BV9 capture, rabbit polyclonal detection; CAD1-4 at 0.63 ng/mL; second replicate
[4] = target: recombinant fragment of human VE-cadherin extracellular region, CAD 1-4 fragment (Asp48-Glu478, preceded by Met), SEQ ID NO: 4 (human) (UniProt P33151); test: sandwich ELISA, BV9 capture, rabbit polyclonal detection; CAD1-4 at 1.25 ng/mL; mean OD minus OD at 0 ng/mL
[5] = target: recombinant fragment of human VE-cadherin extracellular region, CAD 1-4 fragment (Asp48-Glu478, preceded by Met), SEQ ID NO: 4 (human) (UniProt P33151); test: sandwich ELISA, BV9 capture, rabbit polyclonal detection; CAD1-4 at 2.5 ng/mL; first replicate
[6] = target: recombinant fragment of human VE-cadherin extracellular region, CAD 1-4 fragment (Asp48-Glu478, preceded by Met), SEQ ID NO: 4 (human) (UniProt P33151); test: sandwich ELISA, BV9 capture, rabbit polyclonal detection; CAD1-4 at 5 ng/mL; mean OD minus OD at 0 ng/mL
[7] = target: recombinant fragment of human VE-cadherin extracellular region, CAD 1-4 fragment (Asp48-Glu478, preceded by Met), SEQ ID NO: 4 (human) (UniProt P33151); test: sandwich ELISA, BV9 capture, rabbit polyclonal detection; CAD1-4 at 2.5 ng/mL; mean OD minus OD at 0 ng/mL
[8] = target: recombinant fragment of human VE-cadherin extracellular region, CAD 1-4 fragment (Asp48-Glu478, preceded by Met), SEQ ID NO: 4 (human) (UniProt P33151); test: sandwich ELISA, BV9 capture, rabbit polyclonal detection; CAD1-4 at 0.63 ng/mL
[9] = target: circulating (soluble) human VE-cadherin, 90 kDa form, in human serum or plasma (human) (UniProt P33151); test: western blot of healthy human serum diluted 1/500, BV9 tested from 0.02 to 1 µg/mL
[10] = target: recombinant fragment of human VE-cadherin extracellular region, CAD 1-4 fragment (Asp48-Glu478, preceded by Met), SEQ ID NO: 4 (human) (UniProt P33151); test: sandwich ELISA, BV9 capture, rabbit polyclonal detection; CAD1-4 at 10 ng/mL; mean OD minus OD at 0 ng/mL
[11] = target: recombinant fragment of human VE-cadherin extracellular region, CAD 1-4 fragment (Asp48-Glu478, preceded by Met), SEQ ID NO: 4 (human) (UniProt P33151); test: sandwich ELISA, BV9 capture, rabbit polyclonal detection; CAD1-4 at 2.5 ng/mL; second replicate
[12] = target: recombinant fragment of human VE-cadherin extracellular region, CAD 1-4 fragment (Asp48-Glu478, preceded by Met), SEQ ID NO: 4 (human) (UniProt P33151); test: sandwich ELISA, BV9 capture, rabbit polyclonal detection; CAD1-4 at 2.5 ng/mL
[13] = target: recombinant fragment of human VE-cadherin extracellular region, CAD 1-4 fragment (Asp48-Glu478, preceded by Met), SEQ ID NO: 4 (human) (UniProt P33151); test: sandwich ELISA, BV9 capture, rabbit polyclonal detection; CAD1-4 at 1.25 ng/mL
[14] = target: recombinant fragment of human VE-cadherin extracellular region, CAD 1-4 fragment (Asp48-Glu478, preceded by Met), SEQ ID NO: 4 (human) (UniProt P33151); test: sandwich ELISA, BV9 capture, rabbit polyclonal detection; CAD1-4 at 5 ng/mL
[15] = target: recombinant fragment of human VE-cadherin extracellular region, CAD 1-4 fragment (Asp48-Glu478, preceded by Met), SEQ ID NO: 4 (human) (UniProt P33151); test: SDS-PAGE and western blot of the purified fragment with BV9
[16] = target: recombinant fragment of human VE-cadherin extracellular region, CAD 1-4 fragment (Asp48-Glu478, preceded by Met), SEQ ID NO: 4 (human) (UniProt P33151); test: sandwich ELISA, BV9 capture, rabbit polyclonal detection; CAD1-4 at 10 ng/mL; second replicate
[17] = target: recombinant fragment of human VE-cadherin extracellular region, CAD 1-4 fragment (Asp48-Glu478, preceded by Met), SEQ ID NO: 4 (human) (UniProt P33151); test: sandwich ELISA, BV9 capture, rabbit polyclonal detection; CAD1-4 at 1.25 ng/mL; mean OD minus OD at 0 ng/mL; remark: listed apart in the source
[18] = target: recombinant fragment of human VE-cadherin extracellular region, CAD 1-4 fragment (Asp48-Glu478, preceded by Met), SEQ ID NO: 4 (human) (UniProt P33151); test: sandwich ELISA, BV9 capture, rabbit polyclonal detection; CAD1-4 at 5 ng/mL; remark: listed apart in the source
[19] = target: recombinant fragment of human VE-cadherin extracellular region, CAD 1-4 fragment (Asp48-Glu478, preceded by Met), SEQ ID NO: 4 (human) (UniProt P33151); test: sandwich ELISA, BV9 capture, rabbit polyclonal detection; CAD1-4 at 5 ng/mL; second replicate
[20] = target: recombinant fragment of human VE-cadherin extracellular region, CAD 1-4 fragment (Asp48-Glu478, preceded by Met), SEQ ID NO: 4 (human) (UniProt P33151); test: sandwich ELISA, BV9 capture, rabbit polyclonal detection; CAD1-4 at 0.63 ng/mL; remark: listed apart in the source

Substance “anti-VEcadherin mouse mAb, clone BV9 (Abcam, product datasheet ab7047) (antibody)” has an OD [1] of 1.07 OD, an OD [2] of 0.975 OD and an OD [3] of 0.899 OD. The Corr. OD [4] was 0.116 OD, the OD [5] was 1.26 OD and the Corr. OD [6] was 0.556 OD. For the same substance, the Corr. OD [7] was 0.282 OD, the mean OD [8] was 0.937 OD and the lowest mAb concentration giving detection [9] was 0.02 µg/mL. It also gave a mAb concentration at signal plateau [9] of 0.1 to 1 µg/mL, a Corr. OD [10] of 1.06 OD and an OD [11] of 1.09 OD. The mean OD [12] was 1.17 OD, the OD1 [13] was 0.867 OD and the OD2 [13] was 0.829 OD. It also gave a mean OD [13] of 0.848 OD, an OD1 [14] of 1.31 OD and an OD2 [14] of 1.21 OD. The mean OD [14] was 1.26 OD, the lowest detectable quantity [15] was 1 ng and the OD [16] was 2 OD. The Corr. OD [17] was 0.143 OD, the mean OD [18] was 1.4 OD and the OD [19] was 1.45 OD. It also gave an OD1 [20] of 0.794 OD, an OD2 [20] of 0.789 OD and a mean OD [20] of 0.792 OD.

— patent US20100120171A1
